Data from publication PMC9516340, “Familial ALS-associated SFPQ variants promote the formation of SFPQ cytoplasmic aggregates in primary neurons” (Open Biology, 2022).

Target: the molecule itself
Experiment: crystal structure; hanging-drop vapour diffusion at 20°C; SFPQ-276-535 L534I (His6-tag removed) mixed 1:1 with RXRα-DBD-130-228 as source of Zn(II); reservoir 0.1 M MES (pH 6.0), 0.2 M calcium chloride, 12% (w/v) PEG 4000; space group P2(1), two protein molecules per asu; 1.83 Å

B1: SFPQ-276-535 L534I (dimerization domain of human splicing factor proline- and glutamine-rich, fALS-associated L534I variant) (domain or fragment, UniProt P23246 276-535, looked up)
chain: EGFKANLSLLRRPGEKTYTQRCRLFVGNLPADITEDEFKRLFAKYGEPGEVFINKGKGFGFIKLESRALAEIAKAELDDTPMRGRQLRVRFATHAAALSVRNLSPYVSNELLEEAFSQFGPIERAVVIVDDRGRSTGKGIVEFASKPAARKAFERCSEGVFLLTTTPRPVIVEPLEQLDDEDGLPEKLAQKNPMYQKERETPPRFAQHGTFEYEYSQRWKSLDEMEKQQREQVEKNMKDAKDKLESEMEDAYHEHQANIL
notes: also called SFPQ L534I
binding result: binds
